# Laboratory results as given in patent US8252764B2, “Compositions and methods of use of targeting peptides against placenta and adipose tissues” (priority 2000, dated 2012).
# Bridge positions count the residues as written; N and C are the ends. Square brackets hold non-standard residues; d marks the D form. Ends that are not written are not given here. Peptide text beside a SMILES is read from it. * marks the point of attachment. Cbz = O=C(OCc1ccccc1)*; CH2F = FC*
# Key:
# [1] = tested on: fat vasculature; format: in vivo
# Experimental: FIG. 10. Treatment of mouse obesity with fat vasculature-targeted apoptosis. Three cohorts (n=3) of (A) high-fat cafeteria diet-fed obese c57bl/6 mice; or (B) regular diet-fed old (˜1 year) c57bl/6 mice were each subcutaneously injected daily with equimolar amounts of the indicated peptides. Mouse body mass measurement was taken on days when injections were performed (injections were skipped on days for which body mass measurement is not shown). Error bars are SEM for the measurements in three mice.
# FIG. 11. Fat resorption induced by fat vasculature-targeted apoptosis. (A) Representative high-fat cafeteria diet-fed obese c57bl/6 mice; (B) and (C) representative regular diet-fed old (˜1 year) c57bl/6 mice; or (D) epididymal fat from representative regular diet-fed old c57bl/6 mice from the experiment described in FIG. 10. Whole mice (A), subcutaneous fat (B), peritoneal fat (C) and total epididymal fat (D) from the corresponding indicated treatments were photographed 1 week (A) or 3 weeks (B), (C) and (D) after the beginning of subcutaneous injections. The injected peptides were […] (SEQ ID NO:22) linked to (KLAKLAK)2 (SEQ ID NO:1) (left column), CARAC (SEQ ID NO:12) linked to (KLAKLAK)2 (SEQ ID NO:1) (middle column), and […] (SEQ ID NO:22) co-administered with (KLAKLAK)2 (SEQ ID NO:1) (right column).
# FIG. 12. Destruction of fat blood vessels as a result of targeted apoptosis. (A) Tunnel immunohistochemistry, (B) secondary antibody only negative tunnel staining control and (C) and (D) hematoxylin/eosin staining of white fat of mice. (A), (B) and (C) Mice were treated with […] (SEQ ID NO:22) linked to (KLAKLAK)2 (SEQ ID NO:1). (D) Mice were treated with CARAC (SEQ ID NO:12) linked to (KLAKLAK)2 (SEQ ID NO:1). Apoptosis (arrows, (A)) and necrosis/lymphocyte infiltration (arrows, (C)) in response to […] (SEQ ID NO:22) linked to (KLAKLAK)2 (SEQ ID NO:1) treatment are indicated. Bar: 10 μm.
# Stocks of […] (SEQ ID NO:22) fused to (KLAKLAK)2 (SEQ ID NO:1); (KLAKLAK)2 (SEQ ID NO:1) alone; CARAC (SEQ ID NO:12) fused to (KLAKLAK)2 (SEQ ID NO:1); and […] (SEQ ID NO:22) peptide were chemically synthesized, cyclized using the terminal cysteines and HPLC-purified to >90% (Anaspec). Lyophilized peptides were dissolved in DMSO to a concentration of 65 mM to make stock solutions. A total of 150 μl of 0.65 mM peptide solution in PBS was subcutaneously injected daily in the back of C57BL/6 males, after body mass was measured each day. High-fat cafeteria diet for obesity induction (TD97366: 25.4% fat, 21.79% protein, 38.41% carbohydrate) was purchased from Harlan Teklad. Mice were pre-fed with TD97366 prior to the initiation of treatment with adipose targeting peptides to induce diet-related obesity.
# [2] = biological target: T1, prohibition receptor protein complex (Mus musculus, UniProt P67778); experiment: Adipose receptor protein binding and immunoprecipitation
# T1 construct: from tissue; host or cells: mouse adipose tissue extract
# T1 sequence (P67778 2-272 limits assumed): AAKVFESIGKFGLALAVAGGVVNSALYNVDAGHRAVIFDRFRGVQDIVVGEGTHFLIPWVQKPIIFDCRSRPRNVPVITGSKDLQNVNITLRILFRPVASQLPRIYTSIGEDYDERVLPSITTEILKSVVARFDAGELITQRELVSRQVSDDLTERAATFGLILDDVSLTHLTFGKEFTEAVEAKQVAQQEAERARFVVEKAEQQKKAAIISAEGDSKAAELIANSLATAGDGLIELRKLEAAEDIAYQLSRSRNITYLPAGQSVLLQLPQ
# Experimental: A band of approximately 35,000 Daltons (35 kDa) was isolated from mouse adipose tissue extract that bound to […] (SEQ ID NO:22) conjugated to (KLAKLAK)2 (SEQ ID NO:1). […] The 35 kDa band was analyzed by mass spectrometry, which identified three proteins present in the sample.
# The three proteins included predominately a B cell receptor associated protein (prohibition), apolipoprotein E, and the voltage dependent anion channel (VDAC). Further studies were performed by immunoprecipitation, using either […] (SEQ ID NO:22) or CARAC (SEQ ID NO:12) conjugated to (KLAKAK)2 (SEQ ID NO:1) and precipitating with commercially available antibodies.
# It is unknown whether those proteins bound to the CARAC (SEQ ID NO:12) moiety or to (KLAKAK)2 (SEQ ID NO:1).
# [3] = biological target: T2, β3 integrin cytoplasmic domain (Homo sapiens, UniProt P05106); experiment: Binding of Fyn-phosphorylated phage to β3 cytoplasmic domain; details: for Phos/Unphos: Fyn-phosphorylated versus unphosphorylated phage; for β3 or β5/BSA / β3 or β5/GST: X4YX4 library phosphorylated with Fyn
# T2 sequence (P05106 742-788 limits assumed): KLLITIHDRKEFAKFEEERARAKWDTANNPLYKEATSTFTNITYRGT
# Experimental: (§1) Phosphorylation of peptide libraries with src family protein kinases (Fyn, c-Src, Lyn, and Syc) and serine/threonine kinases such as a MAP kinase were performed as described previously (Schmitz et al., 1996; Dente et al., 1997; Gram et al., 1997). Briefly, phage particles were collected from culture supernatants by double precipitation with 20% polyethylene glycol 8000 in 2.5 M NaCl. Particles were dissolved at 10^12 particles/ml. Purified phage (10 μl) were incubated for 3 hours at room temperature with different concentrations (35 to 3,500 units) of protein kinases in a reaction buffer volume of 50 μl. The reaction mixtures were transferred to tubes containing 10 μg of agarose-conjugated anti-P-Tyr, anti-P-Ser, or anti-P-Thr monoclonal antibodies to select phage displaying phosphorylated peptides. Bound phage were eluted by washing the column with 0.3 ml of elution buffer (0.1 M NaCl/glycine/1 mg/ml BSA, pH 2.35). The eluates were neutralized with 2 M Tris-base and incubated with 2 ml of a mid-log bacteria culture. Aliquots of 20 μl were removed for plating, and phage were harvested as described. The phosphorylation-selection step was repeated. Phosphorylated peptides binding to β3 and β5 cytoplasmic domains were analyzed as described in the previous section.
# (§2) Randomly selected clones from rounds III and IV were sequenced from a X4YX4 phosphorylated library with Fyn. Amino acid sequences of the phagemid encoded peptides were deduced from nucleotide sequences. […] The ratio of binding to β3 or β5 was calculated by dividing the number of β3 or β5 colonies by GST or BSA colonies found after panning. The ratio of binding to β3 or β5 with phosphorylated phage by Fyn versus unphosphorylated phage was calculated by dividing the number of colonies found after the panning.
# (§3) The effect of phosphorylation on the affinity and specificity of the cytoplasmic domain-binding was examined. Phage displaying the β3 and β5 cytoplasmic domain-binding peptides were phosphorylated in vitro as previously described (Schmitz et al., 1996; Dente et al., 1997; Gram et al., 1997), using Fyn kinase. Specific phosphorylation of the tyrosine-containing peptide on the surface of the phage was confirmed by using ^32P-gamma […] in the kinase reaction and by separating the phage pIII protein by SDS-PAGE.
# [4] = tested on: SK-RC-49/APA cells; experiment: Phage binding specificity assay on SK-RC-49/APA cells; format: cell-based; details: phage displaying the peptide insert, data not shown
# Experimental: The cell binding assay was performed with an input of 10^9 TU as described for the cell panning. The specificity was confirmed by adding […] (SEQ ID NO:56) peptide to the binding medium in increasing concentrations. For phage binding on immunocaptured APA, wells were blocked for 1 h at room temperature with PBS/3% BSA and incubated with 10^9 TU for 1 h at room temperature in 50 μl PBS/3% BSA. After eight washes in PBS/1% BSA/0.01% Tween-20 and two washes in PBS, phage were rescued by adding 200 μl of exponentially growing K91Kan E. coli. Each experiment was repeated at least three times.
# [5] = biological target: T3, β5 integrin cytoplasmic domain (Homo sapiens, UniProt P18084); experiment: Binding of Fyn-phosphorylated phage to β5 cytoplasmic domain; details: for Phos/Unphos: Fyn-phosphorylated versus unphosphorylated phage; for β3 or β5/BSA / β3 or β5/GST: X4YX4 library phosphorylated with Fyn
# T3 construct: screenings involving the β5 cytoplasmic domain fusion protein
# T3 sequence (P18084 743-799 limits assumed): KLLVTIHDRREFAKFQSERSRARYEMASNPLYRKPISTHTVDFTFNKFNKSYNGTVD
# Experimental: as §1, §2, §3
# [6] = tested on: HUVEC cells; experiment: Apoptosis assay in HUVEC (propidium iodide, chromatin fragmentation); format: cell-based, human
# Experimental: FIG. 26. Penetratin peptide chimera binding to the β5 cytoplasmic domain induces programmed cell death. 10^6 HUVEC cells were harvested in complete media and 15 μM penetratin peptide chimeras were added to the cells. […] (a) Profile obtained with starved cells after 24 h. (b) Confluent cells in complete media. (c) 15 μM of penetratin after four hours. (d) 15 μM of VISY-penetratin chimera after four hours.
# FIG. 30. Chimeric peptide containing VISY peptide linked to penetratin (antennapedia) induces apoptosis. VISY induced apoptosis was inhibited by addition of a caspase inhibitor (zVAD).
# Approximately 1×10^6 cells were harvested in complete media and 15 AM of peptide added for 4, 8, or 12 h. The cellswere then washed in PBS and resuspended in 0.5 ml propidium iodide solution (50 μg/ml PI, 0.1% Triton X-100, 0.1% sodium citrate). After a 24-h incubation at 4° C., cells were counted with a XL Coulter (Coulter Corporation) with a 488-nm laser; 12,000 cells were counted for each histogram, and cell cycle distributions were analyzed with Multicycle program.
# Approximately 1×10^6 cells were harvested in complete medium, and 15 μM of peptide was added for 4, 8, or 12 hours. The cells were then washed in PBS and resuspended in 0.5 ml propidium iodide solution (50 μg/ml PI, 0.1% Triton X-100, 0.1% sodium citrate). After a 24-h incubation at 4° C., the cells were counted with an XL Coulter (Coulter Corporation) with a 488 nm laser; 12,000 cells were counted for each histogram, and cell cycle distributions were analyzed with the Multicycle program.
# 10^6 HUVEC were treated with 15 μM of VISY antennapedia (penetratin) chimera or 15 μM of antennapedia peptide (pentratin) alone for 2-4 hours and chromatin fragmentation was analyzed by electrophoresis in an agarose gel.
compound,measurement,setting,value
CARAC-(KLAKLAK)2: control CARAC (SEQ ID NO:12) fused to (KLAKLAK)2 (SEQ ID NO:1) (CARACKLAKLAKKLAKLAK) [reference compound],histopathological analysis of white fat,"[1]; TUNEL, hematoxylin/eosin",no vascular apoptosis or fat necrosis
same,body mass change (in words),"[1]; high-fat cafeteria diet-fed obese C57BL/6 mice, equimolar amount, sc daily",did not show a significant body mass decrease
same,binding of 35 kDa band from mouse adipose tissue extract,[2]; data not shown,much less binding
same,"binding to VDAC, prohibition and apolipoprotein E",[2]; immunoprecipitation,low levels of non-specific binding to all three proteins
GGGSYRHVE,Phos/Unphos,[3],13.2
same,β3 or β5/BSA,[3],5.3
same,β3 or β5/GST,[3],1.5
CGTGCAVECEVVC,selective binding of phage to SK-RC-49/APA cells,[4],no selective binding
TLRKYFHSS,Phos/Unphos,[5],3.8
same,β3 or β5/BSA,[5],15.2
same,β3 or β5/GST,[5],3.8
CKGGRAKDC,enrichment of prohibition receptor protein complex in precipitated fraction compared to CARAC precipitated fraction,"[2]; immunoprecipitation, SDS-PAGE, data not shown",over a ten-fold enrichment
CC(C)C[C@@H](NC(=O)[C@@H](CCCCN)NC(=O)CNC(=O)CNC(=O)[C@@H]1CSSC[C@H](N)C(=O)N[C@@H](CCCCN)C(=O)NCC(=O)NCC(=O)N[C@@H](CCCNC(=N)N)C(=O)N[C@@H](C)C(=O)N[C@@H](CCCCN)C(=O)N[C@@H](CC(=O)O)C(=O)N1)C(=O)N[C@H](C)C(=O)N[C@H](CCCCN)C(=O)N[C@H](CC(C)C)C(=O)N[C@H](C)C(=O)N[C@H](CCCCN)C(=O)N[C@H](CCCCN)C(=O)N[C@H](CC(C)C)C(=O)N[C@H](C)C(=O)N[C@H](CCCCN)C(=O)N[C@H](CC(C)C)C(=O)N[C@H](C)C(=O)N[C@H](CCCCN)C(=O)O (H-CKGGRAKDCGG[dK][dL][dA][dK][dL][dA][dK][dK][dL][dA][dK][dL][dA][dK]-OH; disulfide 1-9),mortality in genetically obese mice,"[1]; genetically obese mice, not in normal obese mice",occasionally observed to result in mortality within a few days of injection
same,abnormalities in other organs,"[1]; mouse, in vivo",No abnormalities in other organs
TMLRYFMFP,Phos/Unphos,[5],4.2
same,β3 or β5/BSA,[5],3.8
same,β3 or β5/GST,[5],2.3
MLLGYRFEK,Phos/Unphos,[3],2.5
same,β3 or β5/BSA,[3],2.7
same,β3 or β5/GST,[3],3.5
"COC(=O)C[C@H](NC(=O)[C@H](C)NC(=O)[C@@H](NC(=O)OCc1ccccc1)C(C)C)C(=O)CF [zVAD, reference compound] (Cbz-Val-Ala-Asp(OMe)-CH2F)",inhibition of VISY chimeric peptide induced apoptosis,[6]; added to the media at the same time as the VISY chimeric peptide,up to 70%
"VISY-penetratin chimera: VVISYSMPD (β5 cytoplasmic domain-binding peptide) coupled to penetratin, plus a biotin moiety (VVISYSMPDRQIKIWFQNRRMKWKK; also: biotin moiety, place not given here)",induction of apoptosis (chromatin fragmentation),"[6]; 10^6 HUVEC, 15 μM, 2-4 hours",induction of apoptosis
same,induction of apoptosis (propidium iodide staining),"[6]; HUVEC, 15 μM, four hours",induction of apoptosis
TMLRYTVRL,Phos/Unphos,[5],14.3
same,β3 or β5/BSA,[5],2.2
same,β3 or β5/GST,[5],3.4
